The test concerns the target Chikungunya virus (CHIKV), infectious virus of the focus reduction neutralization test (Chikungunya virus). The test is described as follows: cell-based or functional assay.

B1: CHKV-27 (antibody, V domains shown)
VH: QVQLVQSGAEVKKPGASVKVSCKPSGYNFIDYAMHWVRQAPGQRLEWMGWINAANDNREYSQKFQGRVTLTRDTSATTAYMELSSLTFEDTAVYYCARDRGTMVRGVGGWFDPWGQGTLVTVSS
VL: SYVLTQPPSVSVAPGETARITCGGNNIGSKSVHWYQQKPVQAPVVVVYDDSDRPSGIPERFSGSNSGNTATLTISRVEAGDEADYYCQVWDSSSNHPVFGGGTKVAVL
For B1, the IC50 FRNT* (ng/mL) against CHIKV was 17 ng/mL.

B2: CHKV-48 (antibody, V domains shown)
VH: QVQLQESGPGLVKPSQTLSLTCAVSGGSISSGGYSWSWIRQPPGKGLEWIGYIYYSGSTYYNPSLKSRLTISMDTSKNHFSLKLSSVTAADTAVYYCATDYCSSTSCNTGAPVNWGQGTLVTVSS
VL: DIQLTQSPSFLSASVGDRVTITCRASQGISSYLAWYQQKPGKAPKLLINAASTLQSGVPSRFSGSGSGTEFTLTISSLQPEDFATYYCQQFNAYPYTFGQGTKLEIK
Molecule B2 yielded an IC50 FRNT* (ng/mL) against CHIKV of 37 ng/mL.

B3: CHKV-24 (antibody, V domains shown)
VH: QVQLVESGGGVVQPGKSLRLSCAASGFTFRNYGMHWVRQAPGKGLDWVALISYDGTHKYYKDSLKGRFTISRDNFQNTVDLQINSLRPDDTAVYYCAKELATSGVVEPLDSWGQGTLVTVSS
VL: EIVLTQSPGTLSLSPGERATLSCRASQSLVSSYFGWYQQKRGQSPRLLIYAASTRATGIPDRFSGSGSGTDFTLTISRLEPEDFAVYYCQQYGNTPFTFGGGTKVEIK
In turn, B3 displayed an IC50 FRNT* (ng/mL) against CHIKV of 4 ng/mL.

B4: CHKV-35 (antibody, V domains shown)
VH: EVQLVESGGGLVPPGGSLRVSCAASGFTLRSYVMAWVRQAPGKGLEWVSGISGDGDHTYYADSVKGRFTISRDNSKNTLYLQMHSLRAEDTALYYCVKDWGIRGIYYPSGMDVWGQGTTVIVSS
VL: SLELAQPPSVSVSPGQTARITCSGDGLPQAYAYWYQKKPGQAPVPLIYKDTERPSGIPERFSGSSSGTTVTLTISGVQAEDEADYYCQSADSIGTNVIFGGGTKLTVL
B4 registered an IC50 FRNT* (ng/mL) against CHIKV of 11 ng/mL.

B5: CHKV-53 (antibody, V domains shown)
VH: QLQLQESGPGLVKPSETLSLTCTVSGGSISSTSHYWGWIRQPPGKGLEWIGNIYYSGSTYYKSSLKSRVAISVDTSKNQFSLKLSSVTAADTAVYFCARVVVGGYYDNRGYYRGPPTPLYYFDYWGQGTLVTVSS
VL: DIQMTQSPSSVSASVGDRVTISCRASPGISTWLAWYQQKPGKAPKLLIYAVSSLQSGVPSRFSGSGSGTDFTLTISSLQPEDFATYYCQQANSLSWTFGQGTKVEIK
Consider B5, for which the IC50 FRNT* (ng/mL) against CHIKV stood at 319 ng/mL.

B6: CHKV-29 (antibody, V domains shown)
VH: EVQLVESGGVVVQPGGSLRLSCAASGFNFDDYTMHWVRQAPGKGLEWVSLITWDGLSTYYADSMKGRFTISRDNSKDSLYLQMDSLRTEDTAFYYCVRDMGPGAVHFYFYGMDVWGQGTLVTVSS
VL: QSALTQPASVSGSPGQSITISCTGTSSDVGNYNLVSWYQQHPGKVPKLIIYEVSKRPSGISKRFSASKSGNTASLTISGLQAEDEADYYCCSYAGSSGVFGAGTKLTVL
In turn, B6 had an IC50 FRNT* (ng/mL) against CHIKV of 86 ng/mL.

B7: CHKV-31 (antibody, V domains shown)
VH: EVQLVESGGGLVQPGGSLRLSCAASGFTFSNYAMSWVRQAPGKGLEWVSGISGSGRTTYYTDSVKGRFNISRDNTKNTLFLQMNSLRAEDTAVYYCVKDRAGWFGNYFDYWGQGTLVTVSS
VL: DIQMTQSPSSLSASVGDRVTITCRASQGISNYLAWFQQKPGKAPKSLIYAASSLQSGVPSKFSGSRSGTNFTLTISSLQPEDFATYYCQQYNTYPPTFGQGTTVEIK
On to B7, for which the IC50 FRNT* (ng/mL) against CHIKV is 684 ng/mL.

B8: CHKV-50 (antibody, V domains shown)
VH: EVQLVESGGGLVQPGRSLRLSCAASGFTFDDYAMHWVRQAPGKGLEWVSGISWNSGFIGYADSVKGRFTISRDNAKNSLYLQMNSLRAEDTALYYCAKDLGRAYSSGWYLFDYWGQGTLVTVSS
VL: SYVLTQPPSVSVAPGKTARITCGGNNIGSKSVHWYQQLPGQAPVLVVYDDSDRPSGIPERFSGSNSGYTATLIISRVEAGDEADYYCQVWDSTSDHACVFGPGTKVTVL
Regarding B8, the IC50 FRNT* (ng/mL) against CHIKV was 2270 ng/mL.

B9: CHKV-32 (antibody, V domains shown)
VH: QVQLVQSGAEVKKPGASVKVSCKASGYTFTTFAMHWVRQAPGQGLECMGWINTANGYTKYSQKFQGRVTITSDTSASTASMELSSLTSKDTAVYYCARVQDFGHYEGGYGYWGQGTLVTVSS
VL: QSVLTQPPSVSGAPGQRVIISCTGSSSNIGAGYDVHWYQQLPGTAPKLLIYGNSYRPSGVPDRFSGSRSGTSASLAITGLQAEDEADYYCQSHDSSLNDFNVFGSGTKVTVL
The molecule B9 displayed an IC50 FRNT* (ng/mL) against CHIKV of 81 ng/mL.

(Values after patent publication US11851478.)
